Laboratory results from a protein production outcome set (Wang et al. 2014).

assay: label from the status in PepcDB records

**Q.** For “MSSVSDVAFFMEVVKAGTLSGAAQELGVSTAAVSRRLANLEVRLGIRLLNRTTRRAAVTYEGELYLAEGKKILGELEELEQRLASAHSVPKGLLRVNATFGFGRQFIAPAIADFVELHPDVDVQLSLSDRPVNLIEDGFDVCIRFGDLPDARLTSRKIACNRRLLCASPGYLERFGIPASPMDLQRHRCIVIRESDETYGAWHLYSGAAQANVKVRGTVSTNDGEVAVDWALRGLGILLRSEWNVAPYLRSGRLREVLGDWRFPPADIHAVYPMKSNLSAKVRAFVSHLDKHFEPYRPRAEGKSRW”, which protein production is on record?
**A.** failed

**Q.** With “MSTALATLAGKLAERVGMDSVDPQELITTLRQTAFKGDASDAQFIALLIVANQYGLNPWTKEIYAFPDKQNGIVPVVGVDGWSRIINENQQFDGMDFEQDNESCTCRIYRKDRNHPICVTEWMDECRREPFKTREGREITGPWQSHPKRMLRHKAMIQCARLAFGFAGIYDKDEAERIVENTAYTAERQPERDITPVNDETMQEINTLLIALDKTWDDDLLPLCSQIFRRDIRASSELTQAEAVKALGFLKQKATEQKVAA” as the sequence, how does the protein production read?
**A.** failed

**Q.** With “MSTAVASAPRSGQVLADLLPASRVRDAALVLGGAALTGLAAQISLPVPGSPVPVTGQTFAALLVGTALGAGRGFLSLAVYALVGMAGVPWFAGGGSGAAAPSFGYILGMLLAATVVGALARRGADRSVLRTAGAMLLGEAIIYAIGVPYLAFATGMSLTAAIAAGLTPFLIGDALKAALAMGVLPTAWKFLNR” as the sequence, how does the protein production read?
**A.** failed

**Q.** For “MSTAVFLGFIVLSLYLALRSRKGTGSQSAHDFFVASRQFGAFLVFFLAAGEIYSVATMVGFAGGIYAKGPTYGIWFLGYILLAYPLGYFLAPKIWEAGQRFNAITLADLFKGHFDNRAVEFVVALSSILFLLPMAQLQFTGLIAAFRGLGWSFQPLHLVLIAAVLAFTYIAISGVRSSAYVAVLKDVLMVVAIVVTGLAVAGEVGVAKVFHVASEHVSNRMNDEQLRFSMSTILFQSLGFYMMPISVQFIYTAKSADTIRRTQVAMPLYMLMYPFLVLASYYALTRSDTLATANEAFFVAATHLLPSWLLGLVAAAAALSGLLVLTGMCLAIGPIVTRNLLPHLPESRQKAGAKGVIVVYLIVSILMTLMAPNLMLTLINTTYYGVTQFLPGMIVILFSLRVRPSAVVLGILTGQLMAVVLYLEKVDLGGINLGLPCLAANVVVMVVLNLLRTPKGLQATA”, which protein production is on record?
**A.** failed

**Q.** With “MSTDFAAARLNMVESQIRTADVTDLPLQDALRVVARESVVPASKAYLAYADADIEYAPGRWLLRPREVGKLLQALKPREGETVLAIAAPYAAAVLEKMGLSVTRHDGEDLKTVPAGAYDVIVCEGAVAVAPKSWQDALAHGGRLGVVERTGPVGRAAIYLRAEDGVGRRAAFDASPPLLAGFEAETGFSF” as the sequence, how does the protein production read?
**A.** failed

**Q.** Which protein production does the source give for “MSTDKSKTRELILNGNLYKVLFLISFPIVITNIIQAFYDLTDMFYVGKLGAMPLSALSLAGPVNFFIIAIAMGMATGSISLMSKCIGEGNFSRFSRYAGQLIVLNFVLSLFVTICAFFFIDHLLDLLGVKGELKELSRVYFYVTIFAIPIMFLSISITYILNAQGETILSMTIVLFANIVNFILDPILIFSFNMGITGAAWATLFSKLLTVVFYLFLTYRLNYGLKIHLKDLVIDIRSIKEIVNLGLPSTFGQIMVSLSFFIFNYIVIEISPKFLAAYGLTNTIISFLFLPAMGIGTGIISIVGQNLGAKKVNRVEEVLKKGFFISLAILLIINSIVIFNKQFILRLFTNDLEVLNYANNYLLLTTIGTFGYGLQQVFFGGLIGSGRTKIAMIVIFIRLWLIRLPVVFIFQYFGIMENSLGYAFIISNYLAIIILIAFTCTRYWVKPILIKKYK” here?
**A.** failed

**Q.** With “MSTFGKLFRVTTYGESHCKSVGCIVDGVPPGMSLTEADIQPQLTRRRPGQSKLSTPRDEKDRVEIQSGTEFGKTLGTPIAMMIKNEDQRPHDYSDMDKFPRPSHADFTYSEKYGIKASSGGGRASARETIGRVASGAIAEKFLAQNSNVEIVAFVTQIGEIKMNRDSFDPEFQHLLNTITREKVDSMGPIRCPDASVAGLMVKEIEKYRGNKDSIGGVVTCVVRNLPTGLGEPCFDKLEAMLAHAMLSIPASKGFEIGSGFQGVSVPGSKHNDPFYFEKETNRLRTKTNNSGGVQGGISNGENIYFSVPFKSVATISQEQKTATYDGEEGILAAKGRHDPAVTPRAIPIVEAMTALVLADALLIQKARDFSRSVVH” as the sequence, how does the protein production read?
**A.** not failed

**Q.** For “MSTGQAPEKSNFSQRCSLLSRYLKEKGSFGNINMGLARKSDLELAGKFDLKGQQNVIKKVETSETRPFKLIQKFSIGEASTSTEDKAIYIDLSEPAKVAPESGNSQLTIFFGGKVMVFNEFPEDKAKEIMEVAKEANHVAVDSKNSQSHMNLDKSNVVIPDLNEPTSSGNNEDQETGQQHQVVERIARRASLHRFFAKRKDRAVARAPYQVNQHGSHLPPKPEMVAPSIKSGQSSQHIATPPKPKAHNHMPMEVDKKEGQSSKNLELKL”, which protein production is on record?
**A.** failed
